From article PMC4357533 (Journal of molecular biology, 2015)

B1: Sis1 single alteration variant K199N (natural protein, S. cerevisiae, UniProt P25294 1-352, looked up)
chain: MVKETKLYDLLGVSPSANEQELKKGYRKAALKYHPDKPTGDTEKFKEISEAFEILNDPQKREIYDQYGLEAARSGGPSFGPGGPGGAGGAGGFPGGAGGFSGGHAFSNEDAFNIFSQFFGGSSPFGGADDSGFSFSSYPSGGGAGMGGMPGGMGGMHGGMGGMPGGFRSASSSPTYPEEETVQVNLPVSLEDLFVGKKNSFKIGRKGPHGASEKTQIDIQLKPGWKAGTKITYKNQGDYNPQTGRRKTLQFVIQEKSHPNFKRDGDDLIYTLPLSFKESLLGFSKTIQTIDGRTLPLSRVQPVQPSQTSTYPGQGMPTPKNPSQRGNLIVKYKVDYPISLNDAQKRAIDENF
B2: Sis1 single alteration variant K214N (natural protein, S. cerevisiae, UniProt P25294 1-352, looked up)
chain: MVKETKLYDLLGVSPSANEQELKKGYRKAALKYHPDKPTGDTEKFKEISEAFEILNDPQKREIYDQYGLEAARSGGPSFGPGGPGGAGGAGGFPGGAGGFSGGHAFSNEDAFNIFSQFFGGSSPFGGADDSGFSFSSYPSGGGAGMGGMPGGMGGMHGGMGGMPGGFRSASSSPTYPEEETVQVNLPVSLEDLFVGKKKSFKIGRKGPHGASENTQIDIQLKPGWKAGTKITYKNQGDYNPQTGRRKTLQFVIQEKSHPNFKRDGDDLIYTLPLSFKESLLGFSKTIQTIDGRTLPLSRVQPVQPSQTSTYPGQGMPTPKNPSQRGNLIVKYKVDYPISLNDAQKRAIDENF
B3: Sis1 single alteration variant K202N (natural protein, S. cerevisiae, UniProt P25294 1-352, looked up)
chain: MVKETKLYDLLGVSPSANEQELKKGYRKAALKYHPDKPTGDTEKFKEISEAFEILNDPQKREIYDQYGLEAARSGGPSFGPGGPGGAGGAGGFPGGAGGFSGGHAFSNEDAFNIFSQFFGGSSPFGGADDSGFSFSSYPSGGGAGMGGMPGGMGGMHGGMGGMPGGFRSASSSPTYPEEETVQVNLPVSLEDLFVGKKKSFNIGRKGPHGASEKTQIDIQLKPGWKAGTKITYKNQGDYNPQTGRRKTLQFVIQEKSHPNFKRDGDDLIYTLPLSFKESLLGFSKTIQTIDGRTLPLSRVQPVQPSQTSTYPGQGMPTPKNPSQRGNLIVKYKVDYPISLNDAQKRAIDENF

Target: Ssa1 Hsp70 (S. cerevisiae, UniProt P10591 1-642)
Sequence (P10591 whole entry): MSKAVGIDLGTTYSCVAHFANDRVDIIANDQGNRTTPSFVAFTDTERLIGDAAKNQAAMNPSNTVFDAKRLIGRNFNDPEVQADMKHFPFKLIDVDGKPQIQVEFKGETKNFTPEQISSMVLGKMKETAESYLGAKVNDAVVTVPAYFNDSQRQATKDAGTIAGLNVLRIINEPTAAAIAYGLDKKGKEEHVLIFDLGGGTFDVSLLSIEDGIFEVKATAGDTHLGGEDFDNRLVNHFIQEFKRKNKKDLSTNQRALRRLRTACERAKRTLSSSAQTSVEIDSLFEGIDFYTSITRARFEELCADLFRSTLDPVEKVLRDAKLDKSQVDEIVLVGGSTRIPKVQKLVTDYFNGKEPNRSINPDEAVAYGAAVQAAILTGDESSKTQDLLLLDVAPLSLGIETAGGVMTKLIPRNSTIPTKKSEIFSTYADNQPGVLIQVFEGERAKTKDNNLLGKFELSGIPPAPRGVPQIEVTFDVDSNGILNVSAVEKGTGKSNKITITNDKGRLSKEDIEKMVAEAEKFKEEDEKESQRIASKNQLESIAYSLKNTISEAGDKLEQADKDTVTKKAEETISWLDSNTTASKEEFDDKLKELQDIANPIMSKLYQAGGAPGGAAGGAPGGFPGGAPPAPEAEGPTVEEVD
Assay: ELISA

Binding result, binds:
B1
B2
B3
